Measurements: doi:10.1101/694695 (bioRxiv, 2019)
Like-named read-outs stand apart in the source and are kept apart here.

B2: Ec Pch2^EQ (E159Q), purified hexamer (enzyme, E. coli MS115-1, UniProt D7Y2H4 1-311, looked up)
chain: MNVKPSLDELFERRINFPDFEPQERLARLVGLDEHKDRLSKILGLLVNPYGIQEWAKKYHPDARAAVDTVLRRPPLVVLAGDVGSGKTELAETIGDAVARQEDIDITLYPLSLATRGQGRVGEMTQLVSAAFDYTIEAADKLKNTNGKARGAVLLLIDQADALAQSRENAQMHHEDRAGVNAFIRGIDRIANQKLPAAVLMCTNRLKALDPAVQRRAAEILTFSRPNDEQRHYLLHSKLTGLGLNSTAVEELVRLTGPRDPNSPGFTFSDITQRLIPSIILAAYPYNAVSVHSALQVVNKMTPTPAFIDRQ

Assays:
[1] = biological target: Rhizobiales sp. Pch2 (Rhizobiales sp.); assay: crystal structure
[2] = biological target: Pa CdnD (purified, in complexes with HORMA proteins) (P. aeruginosa ATCC27853) (UniProt P0DTF7); assay: SEC-MALS
Chain of Pa CdnD (purified, in complexes with HORMA proteins) (P. aeruginosa ATCC27853) (P0DTF7 whole entry, one chain of several): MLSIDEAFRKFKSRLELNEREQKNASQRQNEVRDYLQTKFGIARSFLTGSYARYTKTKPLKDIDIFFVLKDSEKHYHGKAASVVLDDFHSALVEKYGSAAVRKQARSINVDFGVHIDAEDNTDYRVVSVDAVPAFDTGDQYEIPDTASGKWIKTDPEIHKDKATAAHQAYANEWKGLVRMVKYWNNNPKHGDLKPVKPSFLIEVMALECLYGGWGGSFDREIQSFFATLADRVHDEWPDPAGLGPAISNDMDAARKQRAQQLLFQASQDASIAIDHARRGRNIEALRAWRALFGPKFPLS

[3] = biological target: Pa HORMA2, untagged, coexpressed (P. aeruginosa ATCC27853); assay: SEC-MALS
Chain of Pa HORMA2, untagged, coexpressed (P. aeruginosa ATCC27853) (P0DTF6 whole entry): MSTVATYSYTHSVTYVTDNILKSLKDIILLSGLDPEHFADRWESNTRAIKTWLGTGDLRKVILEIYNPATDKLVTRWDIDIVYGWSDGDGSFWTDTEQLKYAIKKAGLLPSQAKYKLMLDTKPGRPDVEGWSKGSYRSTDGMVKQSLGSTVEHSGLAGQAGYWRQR

[4] = biological target: B2; assay: crystal structure
[5] = biological target: T1, Ec CdnC (purified, coexpressed with His6-HORMA) (E. coli MS115-1, UniProt D7Y2H2 1-321); assay: SEC-MALS
T1 sequence (looked up): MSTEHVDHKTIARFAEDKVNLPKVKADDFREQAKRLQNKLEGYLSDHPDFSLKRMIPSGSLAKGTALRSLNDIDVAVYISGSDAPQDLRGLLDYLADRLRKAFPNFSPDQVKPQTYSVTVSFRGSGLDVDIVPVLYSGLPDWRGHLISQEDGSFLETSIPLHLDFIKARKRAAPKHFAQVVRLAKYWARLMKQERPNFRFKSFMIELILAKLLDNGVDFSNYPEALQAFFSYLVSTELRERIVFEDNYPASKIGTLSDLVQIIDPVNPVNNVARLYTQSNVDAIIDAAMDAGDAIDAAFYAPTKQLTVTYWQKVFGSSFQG

[6] = biological target: the molecule itself; assay: SEC-MALS
[7] = biological target: T2, Ec CdnC:HORMA complex (purified) (E. coli MS115-1, UniProt D7Y2H2 1-321; D7Y2H3 1-172); assay: SEC-MALS
T2 sequence (looked up) 1: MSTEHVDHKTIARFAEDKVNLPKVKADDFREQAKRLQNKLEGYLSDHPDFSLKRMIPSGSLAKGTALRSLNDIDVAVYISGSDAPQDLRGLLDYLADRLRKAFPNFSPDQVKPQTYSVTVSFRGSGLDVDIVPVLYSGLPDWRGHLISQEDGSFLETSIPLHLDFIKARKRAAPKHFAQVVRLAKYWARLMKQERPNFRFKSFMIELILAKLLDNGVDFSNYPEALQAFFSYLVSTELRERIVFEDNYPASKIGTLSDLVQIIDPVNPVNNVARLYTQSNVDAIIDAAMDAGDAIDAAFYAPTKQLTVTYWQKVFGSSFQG
T2 sequence (looked up) 2: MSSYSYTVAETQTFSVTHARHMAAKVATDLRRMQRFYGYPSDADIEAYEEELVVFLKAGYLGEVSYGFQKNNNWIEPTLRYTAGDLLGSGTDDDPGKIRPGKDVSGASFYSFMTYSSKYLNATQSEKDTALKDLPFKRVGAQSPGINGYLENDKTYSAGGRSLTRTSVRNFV

With Rhizobiales sp. Pch2 (enzyme) as the molecule, how does the stoichiometry N [1] read?
The stoichiometry N was 6.

With “Pa HORMA2, untagged, coexpressed (natural protein)” as the molecule, how does the stoichiometry N [2] read?
The stoichiometry N was 1 CdnD:HORMA2.

And the stoichiometry N ([2]; scale: CdnD per HORMA2 in the 2:1:1 CdnD:HORMA1:HORMA2 complex)?
Its stoichiometry N is 2.

How did the stoichiometry N ([2]; scale: CdnD per HORMA1 in the 2:1:1 CdnD:HORMA1:HORMA2 complex) turn out when “Pa HORMA1 (purified, SEC-MALS samples) (natural protein)” was run?
The stoichiometry N was 2.

What about the stoichiometry N (HORMA1:HORMA2) [3] of the same molecule?
Its stoichiometry N (HORMA1:HORMA2) is 1.

And the stoichiometry N ([3]; scale: HORMA1 per HORMA2 in the 2:1:1 CdnD:HORMA1:HORMA2 complex)?
Its stoichiometry N is 1.

B1: Ec HORMA (purified, coexpressed with CdnC) (natural protein, E. coli MS115-1, UniProt D7Y2H3 1-172, looked up)
chain: MSSYSYTVAETQTFSVTHARHMAAKVATDLRRMQRFYGYPSDADIEAYEEELVVFLKAGYLGEVSYGFQKNNNWIEPTLRYTAGDLLGSGTDDDPGKIRPGKDVSGASFYSFMTYSSKYLNATQSEKDTALKDLPFKRVGAQSPGINGYLENDKTYSAGGRSLTRTSVRNFV
Which results are given for B1?
binding result [4]: binds; stoichiometry N [5]: 1 CdnC:HORMA

B2 was tested. Which “stoichiometry N” value [6] did it give?
The value was 6.

And the “stoichiometry N” value [7]?
The value was 6 Pch2^EQ chains per CdnC:HORMA.
